Results from paper PMC10939898.

Tests used:
[1] = target: fluorescently-labeled NCP carrying H2AK13ub and H2AK15ub (NCP^ub) (human) (UniProt P0CG48); assay: fluorescence polarisation
[2] = target: fluorescently-labeled nucleosome core particle (NCP) (human); assay: fluorescence polarisation

| Substance | Kd [1] [nM] | Kd [2] [nM] |
| --- | --- | --- |
| RNF168 MIU2-LRM (aa 430–481) (from UniProt Q8IYW5 430-481) (domain or fragment) | 1400 | – |
| RNF168 RING domain (RNF168^R, aa 1–94) (from UniProt Q8IYW5 1-94) (domain or fragment) | – | 400 |
| full-length human RNF168 (RNF168^FL, aa 1–571) (from UniProt Q8IYW5 1-571) (natural protein) | 50 | 120 |
